B1: farletuzumab-FuG1 (antibody, V domains shown)
VH: EVQLVESGGGVVQPGRSLRLSCSASGFTFSGYGLSWVRQAPGKGLEWVAMISSGGSYTYYADSVKGRFAISRDNAKNTLFLQMDSLRPEDTGVYFCARHGDDPAWFAYWGQGTPVTVSS
VL: DIQLTQSPSSLSASVGDRVTITCSVSSSISSNNLHWYQQKPGKAPKPWIYGTSNLASGVPSRFSGSGSGTDYTFTISSLQPEDIATYYCQQWSSYPYMYTFGQGTKVEIK
B2: farletuzumab-cFuG1 (antibody, V domains shown)
VH: B1 VH
VL: B1 VL

Key:
[1] = biological target: T1, recombinant furin, biotinylated (UniProt P09958 27-794, biotin); assay: BLI
[2] = biological target: T1, recombinant furin, biotinylated; assay: BLI; remark: listed apart in the source

T1 sequence (P09958 108-715): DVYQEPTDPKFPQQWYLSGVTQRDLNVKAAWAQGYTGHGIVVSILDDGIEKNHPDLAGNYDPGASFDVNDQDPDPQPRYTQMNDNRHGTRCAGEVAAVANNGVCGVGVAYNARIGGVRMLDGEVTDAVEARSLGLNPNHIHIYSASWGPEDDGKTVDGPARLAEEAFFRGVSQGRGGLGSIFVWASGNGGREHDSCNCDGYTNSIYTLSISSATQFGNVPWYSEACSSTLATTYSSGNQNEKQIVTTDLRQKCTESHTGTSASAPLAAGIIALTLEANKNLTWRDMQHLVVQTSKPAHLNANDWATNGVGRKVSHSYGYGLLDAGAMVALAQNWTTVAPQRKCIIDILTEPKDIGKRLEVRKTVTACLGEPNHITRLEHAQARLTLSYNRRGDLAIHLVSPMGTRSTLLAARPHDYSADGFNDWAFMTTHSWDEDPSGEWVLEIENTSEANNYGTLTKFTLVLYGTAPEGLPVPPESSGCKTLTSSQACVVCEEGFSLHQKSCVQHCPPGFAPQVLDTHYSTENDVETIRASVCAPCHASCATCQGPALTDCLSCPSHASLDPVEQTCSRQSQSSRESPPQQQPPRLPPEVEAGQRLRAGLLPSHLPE

| Binder | koff [1] [s⁻¹] | Kd [2] [nM] |
| --- | --- | --- |
| B1 | 8.65e-05 | 33 |
| B2 | 0.000312 | 7.5 |

From paper PMC8826744 (2022)
